The record followed here is IntAct's records for PubMed 29039417.

B1: BBSome complex member BBS4 (Homo sapiens), Q96RK4 (parent)
chain: MAEERVATRTQFPVSTESQKPRQKKAPEFPILEKQNWLIHLHYIRKDYEACKAVIKEQLQETQGLCEYAIYVQALIFRLEGNIQESLELFQTCAVLSPQSADNLKQVARSLFLLGKHKAAIEVYNEAAKLNQKDWEISHNLGVCYIYLKQFNKAQDQLHNALNLNRHDLTYIMLGKIHLLEGDLDKAIEVYKKAVEFSPENTELLTTLGLLYLQLGIYQKAFEHLGNALTYDPTNYKAILAAGSMMQTHGDFDVALTKYRVVACAVPESPPLWNNIGMCFFGKKKYVAAISCLKRANYLAPFDWKILYNLGLVHLTMQQYASAFHFLSAAINFQPKMGELYMLLAVALTNLEDIENAKRAYAEAVHLDKCNPLVNLNYAVLLYNQGEKKNALAQYQEMEKKVSLLKDNSSLEFDSEMVEMAQKLGAALQVGEALVWTKPVKDPKSKHQTTSTSKPASFQQPLGSNQALGQAMSSAAAYRTLPSGAGGTSQFTKPPSLPLEPEPAVESSPTETSEQIREK
partner: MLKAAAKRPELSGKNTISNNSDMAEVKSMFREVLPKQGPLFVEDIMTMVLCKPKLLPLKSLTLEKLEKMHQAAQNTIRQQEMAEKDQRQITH

In this experiment the parent is B1. As to conditions: with bbip1_human BBIP1, A8MTZ0.
For the variant L351E, the “effect of a mutation on the interaction” value is recorded as “with no effect”.

Take L351A: the “effect of a mutation on the interaction” value is “with no effect”.

Take L351P: the “effect of a mutation on the interaction” value is given as “disrupting interaction strength”. For the variant L351K, the “effect of a mutation on the interaction” value is reported as “with no effect”.

As to A362K, the “effect of a mutation on the interaction” value is reported as “with no effect”. With A362E, the “effect of a mutation on the interaction” value is “with no effect”. Under L376A stands “with no effect”. To L376K belongs “with no effect”; to L376E, “with no effect”; to L376R, “disrupting interaction strength”.

Turning to L376P, the “effect of a mutation on the interaction” value is “disrupting interaction strength”.

C370A: the “effect of a mutation on the interaction” value is “with no effect”. Under C370E stands “with no effect”; under C370K, “with no effect”. Consider K369E, for which the “effect of a mutation on the interaction” value is “with no effect”.

Take K369A: the “effect of a mutation on the interaction” value is “with no effect”. Under N375K stands “with no effect”. Under N375A stands “with no effect”; under N375E, “with no effect”; under K358A, “with no effect”. To K358E belongs “with no effect”; to L367E, “with no effect”. With L367K, the “effect of a mutation on the interaction” value is on record as “with no effect”. L367P: the “effect of a mutation on the interaction” value is listed as “disrupting interaction strength”. To L367A belongs “with no effect”.

As to A357V, the “effect of a mutation on the interaction” value is “disrupting interaction strength”. Under A357E stands “with no effect”; under A357K, “with no effect”. For Y361A, the “effect of a mutation on the interaction” value is recorded as “with no effect”. Under Y361K stands “with no effect”. Take Y361C: the “effect of a mutation on the interaction” value is recorded as “disrupting interaction strength”. Under Y361E stands “with no effect”; under N350K, “with no effect”. Under N350E stands “with no effect”; under L373K, “with no effect”; under L373S, “disrupting interaction strength”.

L373A: the “effect of a mutation on the interaction” value is recorded as “with no effect”.

L373E: the “effect of a mutation on the interaction” value is “with no effect”.

Consider P372L, for which the “effect of a mutation on the interaction” value was “disrupting interaction strength”. To P372A belongs “with no effect”.

In the case of P372S, the “effect of a mutation on the interaction” value is reported as “disrupting interaction strength”.

For P372K, the “effect of a mutation on the interaction” value is on record as “with no effect”.

As for P372E, the “effect of a mutation on the interaction” value was “with no effect”. Turning to N371K, the “effect of a mutation on the interaction” value is listed as “with no effect”. To N371E belongs “with no effect”. For N371A, the “effect of a mutation on the interaction” value is “with no effect”. As to D368A, the “effect of a mutation on the interaction” value was “with no effect”.

For the variant D368K, the “effect of a mutation on the interaction” value is “with no effect”. Under D368G stands “disrupting interaction strength”; under D368E, “with no effect”.

Turning to E363G, the “effect of a mutation on the interaction” value is given as “disrupting interaction strength”. For the variant E363K, the “effect of a mutation on the interaction” value is on record as “with no effect”. Take E363A: the “effect of a mutation on the interaction” value is on record as “with no effect”. To A360E belongs “with no effect”; to A360K, “with no effect”. Under R359E stands “with no effect”. On to R359A, for which the “effect of a mutation on the interaction” value is “with no effect”. With R359K, the “effect of a mutation on the interaction” value was “with no effect”.

On to N356A, for which the “effect of a mutation on the interaction” value is listed as “with no effect”.

Consider N356E, for which the “effect of a mutation on the interaction” value is recorded as “with no effect”. N356K: the “effect of a mutation on the interaction” value is listed as “with no effect”.

N377A: the “effect of a mutation on the interaction” value was “with no effect”. Under N377D stands “disrupting interaction strength”; under N377E, “with no effect”. Regarding N377C, the “effect of a mutation on the interaction” value was “disrupting interaction strength”. To E355K belongs “with no effect”.

On to E355A, for which the “effect of a mutation on the interaction” value is on record as “with no effect”.

As to A364E, the “effect of a mutation on the interaction” value is reported as “with no effect”. Under A364K stands “with no effect”; under A364V, “disrupting interaction strength”; under A364T, “disrupting interaction strength”. To V365K belongs “with no effect”; to V365A, “with no effect”.

With V365E, the “effect of a mutation on the interaction” value is reported as “with no effect”.

For D353E, the “effect of a mutation on the interaction” value is reported as “with no effect”. Under D353A stands “with no effect”; under D353K, “with no effect”.

On to D353G, for which the “effect of a mutation on the interaction” value is “disrupting interaction strength”. In the case of V374A, the “effect of a mutation on the interaction” value was “with no effect”. Under V374E stands “with no effect”; under V374K, “with no effect”; under E352K, “with no effect”. Under E352A stands “with no effect”; under H366A, “with no effect”; under H366K, “with no effect”. In the case of H366E, the “effect of a mutation on the interaction” value is recorded as “with no effect”.
